This is an account of results in publication PMC5341102.

The nature of series [1]: worm lifespan at 20 °C, skn-1(zu67) background. Conditions: glycan lost; control: skn-1(zu67) expressing SKN-1B/C::GFP.
Series [2] in a line: in vitro kinase assay, anti-phosphoserine blot. Conditions: glycan lost; control: wild type GST-SKN-1(321–623aa) co-expressed with HIS-OGT-1.
Series [3] is described as follows: worm lifespan at 20 °C, N2 background. Conditions: glycan lost; control: N2 expressing SKN-1B/C::GFP.
Series [4] is described as follows: survival on 9.125 mM tBHP, skn-1(zu67) background. Particulars: glycan lost; control: skn-1(zu67) expressing SKN-1B/C::GFP.
Series [5] in a line: GFP scoring of intestinal nuclei, gsk-3 RNAi. Conditions: glycan lost, control: SKN-1B/C::GFP worms.
A short description of series [6]: GFP scoring of intestinal nuclei, oga-1 background. Conditions: glycan lost; control: SKN-1B/C::GFP in oga-1(ok1207).
A short description of series [7]: survival on 9.125 mM tBHP, N2 background. Particulars: glycan lost; control: N2 expressing SKN-1B/C::GFP.
Series [8] in a line: GFP scoring of intestinal nuclei, tBHP.
Series [9] can be described thus: GFP scoring of intestinal nuclei, normal condition. Conditions: control: N2 expressing SKN-1B/C::GFP, untreated.
The nature of series [10]: SKN-1 expression in ASI neurons. Conditions: control: wild type worms.
A short description of series [11]: anti-phospho-SKN-1(Ser483) blot. Conditions: glycan gained; control: wild type worms.

B1: SKN-1: S470A/T493A (protein)
parent chain: MGGSSRRQRSTSATRRDDKRRRRQCFSSVADDEEETTSIYGVSSIFIWILATSSLILVISSPSSNTSIQSSSYDRITTKHLLDNISPTFKMYTDSNNRNFDEVNHQHQQEQDFNGQSKYDYPQFNRPMGLRWRDDQRMMEYFMSNGPVETVPVMPILTEHPPASPFGRGPSTERPTTSSRYEYSSPSLEDIDLIDVLWRSDIAGEKGTRQVAPADQYECDLQTLTEKSTVAPLTAEENARYEDLSKGFYNGFFESFNNNQYQQKHQQQQREQIKTPTLEHPTQKAELEDDLFDEDLAQLFEDVSREEGQLNQLFDNKQQHPVINNVSLSEGIVYNQANLTEMQEMRDSCNQVSISTIPTTSTAQPETLFNVTDSQTVEQWLPTEVVPNDVFPTSNYAYIGMQNDSLQAVVSNGQIDYDHSYQSTGQTPLSPLIIGSSGRQQQTQTSPGSVTVTATATQSLFDPYHSQRHSFSDCTTDSSSTCSRLSSESPRYTSESSTGTHESRFYGKLAPSSGSRYQRSSSPRSSQSSIKIARVVPLASGQRKRGRQSKDEQLASDNELPVSAFQISEMSLSELQQVLKNESLSEYQRQLIRKIRRRGKNKVAARTCRQRRTDRHDKMSHYI
B1: the “other: lifespan extension by transgene” value in [1] and in [3] was “abolishes” each time. Also, the “other: phosphorylation by GSK-3” value in [2] was “increases”. In addition, the “other: oxidative stress resistance conferred by transgene” value in [4] and in [7] was “abolishes” in each case. The localisation_or_trafficking entry in series [5] is recorded as “decreases”; in [6], “decreases”; in series [8] (glycan lost, control: SKN-1B/C::GFP in N2, tBHP-treated), “decreases”.

B2: SKN-1: ogt-1(ok1474) (protein)
parent chain: B1 parent chain
With B2, the localisation_or_trafficking result is reported as “no change” in series [9] (glycan lost) and “decreases” in series [8] (glycan lost, control: N2 expressing SKN-1B/C::GFP, tBHP-treated).

B3: SKN-1: oga-1(ok1207) (protein)
parent chain: B1 parent chain
Regarding B3, the localisation_or_trafficking result was “increases” in [9] (glycan gained) and “increases” in series [8] (glycan gained, control: N2 expressing SKN-1B/C::GFP, tBHP-treated).

B4: SKN-1: ogt-1 loss (protein)
parent chain: B1 parent chain
Regarding B4, in series [10] (glycan lost), the expression_or_secretion result is “no change”.

B5: SKN-1: oga-1 loss (protein)
parent chain: B1 parent chain
On to B5, for which, in [11], the “other: Ser483 phosphorylation” value is on record as “decreases”. In addition, the expression_or_secretion result in series [10] (glycan gained) is “no change”.

B6: SKN-1: T493A (protein)
parent chain: B1 parent chain
With B6, the “other: phosphorylation by GSK-3” value in series [2] is “increases”.

B7: SKN-1: without HIS-OGT-1 (protein)
parent chain: B1 parent chain
B7: the “other: phosphorylation by GSK-3” value in series [2] is given as “increases”.
